Assay results: patent US20120177676A1 (COMPLIX, published 2012)

Target: T1, biotinylated C36 peptide bL4_C36 (residues 628 to 663 of HIV-1 HXB2 Env, gp41 HR2) (HIV-1 HXB2, N-terminal biotin attached through the Gly-Ser-Gly-Ser linker; C-terminal amide)
T1 construct: also called C36 derivative
T1 peptide: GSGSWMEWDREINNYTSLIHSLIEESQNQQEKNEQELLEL
Assay: ITC, bL4_C36 (50 microM, syringe) titrated into scAB013_N3 (2.46 microM, cell), 1:1 binding model

B1: scAB013_N3 Alphabody, N-terminally appended with a (His)6 tag (designed binder)
chain: HHHHHHAAIAAQQHLIALIQWGIAQLQARIYAMTGGSSGGMSIEEIQKQIAAIQKQIAAIQKQIYRMTGGSSGGMSIQAIQKQLQAIVKQIKAIQKQILAMEA
notes: Expressed in E. coli BL21(DE3) from pET16b and purified by IMAC and SEC; also called gp41 N-trimer-mimicking Alphabody
Kd: 0.15 µM
ΔH: -30 kJ/mol
